Paper doi:10.1101/2021.04.12.439584 (bioRxiv, 2021)

Molecular target: Rabbit skeletal muscle actin (rabbit, UniProt P68135 1-377)
Assay: co-sedimentation

B1: LmForminB FH2 domain (714aa-1149aa) (domain or fragment)
chain: KPKPQYTGPRLKTFFWKKILKPSGIWAASDTDDVRRAVIDESFMLKLFKLKAVAQPSAAEGAAEKSEQERRSQLRSNVFTGQRLQNMGIALKRVQVPVEVLCKALITCDSAVLPPERREMLTAALPTTEDVTALTAEKQAGRSVWTEVETYLYTAATTVKDVRERLQLWTAAEELEDTVQSISSLLSSVDAAVCAITHRNGRFARMMRIILAFGNHLNRGTPHADAEGFRLESLNQLNFVKSSDGKTTVLMALVVSLMDSGRGRSERGGGTTSAPGADNDDDDVRNALRFVEDVSCVRAVANSPLQDMGQQVSQLNFTLQRMRRVVEEAKDTKAWYDKRLPSVKAEEVPDALPGLLREAVDRYLATVGQIALRYQQLRDDVSAMMATYGEDPNADETVIWGYVLQFSKDVQRCVDTVAAVHLTKRRLMGMPEATEQ
Kd: 200 nM

B2: LmForminA FH2 domain (695aa-1092aa) (domain or fragment)
chain: ASGAAAPMLNSSTTRNVPINGAVGDSDDAIFKAARPIELTAGARDKLLALFPKAAPKHVIEEDEATSRVQRILDVNRDRNVGIVLKFIRLPIQQIEASVRTFDTLTLGEERISGLLKIIPTSDDFEAIARAQKEHGGPWKRAEEQQLPQAVRFFLMTQRIDHYAERIHAWSLRYELHGRLEYLEQKLSKADKAIDATFASPSLPDLLYFLLEVSNFLNAGSRFQGAKGFPITQLPQIMDFKTTDGKGTLLQYVAEILDTVNPHLQAISSELMPAVDEGRDIDVASIEQELKKLRGRLQKCKHLIEQLKNDVRWTNVLGKFIYRSLPELERVEKLAESINGKAERLQEFLCEKKETFSLNEVLRVLSNFCKRYEQEREKQRLRQERQDRMEDNKQRRQS
Kd: 1840 nM
